# Experimental data: IntAct's records for PubMed 16228008
# B1: E3 ubiquitin-protein ligase CBL-B (Homo sapiens), Q13191-1 (parent)
# chain: MANSMNGRNPGGRGGNPRKGRILGIIDAIQDAVGPPKQAAADRRTVEKTWKLMDKVVRLCQNPKLQLKNSPPYILDILPDTYQHLRLILSKYDDNQKLAQLSENEYFKIYIDSLMKKSKRAIRLFKEGKERMYEEQSQDRRNLTKLSLIFSHMLAEIKAIFPNGQFQGDNFRITKADAAEFWRKFFGDKTIVPWKVFRQCLHEVHQISSGLEAMALKSTIDLTCNDYISVFEFDIFTRLFQPWGSILRNWNFLAVTHPGYMAFLTYDEVKARLQKYSTKPGSYIFRLSCTRLGQWAIGYVTGDGNILQTIPHNKPLFQALIDGSREGFYLYPDGRSYNPDLTGLCEPTPHDHIKVTQEQYELYCEMGSTFQLCKICAENDKDVKIEPCGHLMCTSCLTAWQESDGQGCPFCRCEIKGTEPIIVDPFDPRDEGSRCCSIIDPFGMPMLDLDDDDDREESLMMNRLANVRKCTDRQNSPVTSPGSSPLAQRRKPQPDPLQIPHLSLPPVPPRLDLIQKGIVRSPCGSPTGSPKSSPCMVRKQDKPLPAPPPPLRDPPPPPPERPPPIPPDNRLSRHIHHVESVPSRDPPMPLEAWCPRDVFGTNQLVGCRLLGEGSPKPGITASSNVNGRHSRVGSDPVLMRKHRRHDLPLEGAKVFSNGHLGSEEYDVPPRLSPPPPVTTLLPSIKCTGPLANSLSEKTRDPVEEDDDEYKIPSSHPVSLNSQPSHCHNVKPPVRSCDNGHCMLNGTHGPSSEKKSNIPDLSIYLKGDVFDSASDPVPLPPARPPTRDNPKHGSSLNRTPSDYDLLIPPLGEDAFDALPPSLPPPPPPARHSLIEHSKPPGSSSRPSSGQDLFLLPSDPFVDLASGQVPLPPARRLPGENVKTNRTSQDYDQLPSCSDGSQAPARPPKPRPRRTAPEIHHRKPHGPEAALENVDAKIAKLMGEGYAFEEVKRALEIAQNNVEVARSILREFAFPPPVSPRLNL
# partner: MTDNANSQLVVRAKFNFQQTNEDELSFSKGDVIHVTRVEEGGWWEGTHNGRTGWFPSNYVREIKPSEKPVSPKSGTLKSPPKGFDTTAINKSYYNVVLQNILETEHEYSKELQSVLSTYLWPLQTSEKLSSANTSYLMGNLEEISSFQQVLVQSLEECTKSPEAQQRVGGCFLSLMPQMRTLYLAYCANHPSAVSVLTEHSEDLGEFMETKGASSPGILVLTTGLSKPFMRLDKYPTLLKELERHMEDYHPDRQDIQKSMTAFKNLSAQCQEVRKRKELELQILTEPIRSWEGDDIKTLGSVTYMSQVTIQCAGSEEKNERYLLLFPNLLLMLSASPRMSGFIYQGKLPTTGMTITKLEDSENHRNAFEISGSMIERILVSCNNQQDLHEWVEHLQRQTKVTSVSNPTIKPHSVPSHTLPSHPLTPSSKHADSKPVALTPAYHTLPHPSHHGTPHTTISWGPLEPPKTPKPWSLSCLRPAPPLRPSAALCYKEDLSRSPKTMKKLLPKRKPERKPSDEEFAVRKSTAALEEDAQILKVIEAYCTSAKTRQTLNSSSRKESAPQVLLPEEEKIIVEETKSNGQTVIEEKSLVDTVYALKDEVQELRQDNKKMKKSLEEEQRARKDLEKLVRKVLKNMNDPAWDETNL
# Variants of: B1
# Details: with arhg7_rat Arhgef7, O55043
row,Variant,effect of a mutation on the interaction
1,R904A,decreasing interaction strength
